This is an account of results in patent publication US20220025406.

Holding throughout (experiment): cell_activity
Data set [1] concerns Sleeping Beauty transposase SB100X. The following applies: excision in HeLa, 3 of 21 clones.
In data set [2] the test system is phiC31 integrase (Streptomyces phage phiC31?). The following applies: HeLa CI.24.22, 4 of 24 clones positive.
Data set [3] concerns hyperactive piggyBac transposase (HAhyPBase). The following applies: excision in HeLa (step 1 and step 3 both 17%); 46% in hiPS cells (Table 17).
Data set [4] concerns gp3-phiC31 integrase fusion (Streptomyces phage phiC31?). The following applies: HeLa CI.24.22.21.3, attL x attR recombination, 13 of 27 clones.

Turning to “Sleeping Beauty ITRs flanking puro-delta-tk”, the activity in data set [1] was determined as 14%.
For phiC31 attB (pEP24) x attP (pEP28), the activity in data set [2] stood at 16%.
Consider piggyBac ITRs flanking puro-delta-tk, for which, in data set [3], the activity worked out at 17%.
As for phiC31 attL (genomic) x attR (pEP50), the activity in data set [4] stood at 48%.
